Biological target: RPA (Homo sapiens, UniProt P27694;P15927;P35244 1-616;1-270;1-121)
Experiment: EMSA

RPA, sequence (P27694 whole entry, chain 1 of 3): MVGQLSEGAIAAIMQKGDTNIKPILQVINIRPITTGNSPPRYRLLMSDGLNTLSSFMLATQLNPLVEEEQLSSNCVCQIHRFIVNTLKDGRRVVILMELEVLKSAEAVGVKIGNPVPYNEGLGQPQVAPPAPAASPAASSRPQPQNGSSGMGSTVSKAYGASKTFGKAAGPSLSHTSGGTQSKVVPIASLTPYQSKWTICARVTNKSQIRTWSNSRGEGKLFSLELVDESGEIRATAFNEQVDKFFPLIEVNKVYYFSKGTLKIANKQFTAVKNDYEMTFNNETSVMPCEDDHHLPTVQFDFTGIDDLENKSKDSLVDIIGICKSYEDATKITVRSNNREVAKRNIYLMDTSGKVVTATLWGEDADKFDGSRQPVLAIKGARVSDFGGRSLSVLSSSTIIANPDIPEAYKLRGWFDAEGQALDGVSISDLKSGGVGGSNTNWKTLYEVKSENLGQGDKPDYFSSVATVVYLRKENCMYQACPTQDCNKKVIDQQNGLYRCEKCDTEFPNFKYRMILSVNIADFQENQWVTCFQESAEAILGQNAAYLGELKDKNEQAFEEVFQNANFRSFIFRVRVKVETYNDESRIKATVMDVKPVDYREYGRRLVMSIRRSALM
RPA, sequence (P15927 whole entry, chain 2 of 3): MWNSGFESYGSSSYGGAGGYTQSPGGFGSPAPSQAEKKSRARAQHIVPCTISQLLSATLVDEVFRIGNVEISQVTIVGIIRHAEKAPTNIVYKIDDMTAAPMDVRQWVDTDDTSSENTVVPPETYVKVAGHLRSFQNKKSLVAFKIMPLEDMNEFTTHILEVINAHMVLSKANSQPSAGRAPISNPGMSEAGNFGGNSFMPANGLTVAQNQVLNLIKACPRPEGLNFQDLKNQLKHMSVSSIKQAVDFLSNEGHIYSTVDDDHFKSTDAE
RPA, sequence (P35244 whole entry, chain 3 of 3): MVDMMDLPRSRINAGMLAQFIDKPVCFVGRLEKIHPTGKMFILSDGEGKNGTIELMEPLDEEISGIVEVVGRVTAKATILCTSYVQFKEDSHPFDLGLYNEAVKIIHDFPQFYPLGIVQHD

B1: R:D (25-bp RNA:DNA hybrid) (DNA:RNA)
RNA: GCAGCUGGCACGACAGGUAUGAAUC
DNA: GATTCATACCTGTCGTGCCAGCTGC
binding result: no binding
